± gives the uncertainty stated by the source.

The record followed here is the Human Domainome abundance scans (Beltran et al. 2025).

First the molecules themselves.
B1: Transitional endoplasmic reticulum ATPase, residues 26 to 106; numbered along this chain, P55072 (parent)
chain: LIVDEAINEDNSVVSLSQPKMDELQLFRGDTVLLKGKKRREAVCIVLSDDTCSDEKIRMNRVVRNNLRVRLGDVISIQPCP

The series covers variants of B1. Kind of series: abundance fitness (aPCA) (normalised: wild type 0, dead -1); higher = more abundant; growth selection in yeast, the domain comes from the species named. The settings on record: Homo sapiens.
D73F: the abundance fitness was -0.861 ± 0.18.

With D73W, the abundance fitness is -0.412 ± 0.13.

As to D73K, the abundance fitness is -0.309 ± 0.14.

Consider D73P, for which the abundance fitness is -0.915 ± 0.19.

Regarding D73I, the abundance fitness was -0.655 ± 0.24.

Turning to D73L, the abundance fitness was -0.922 ± 0.13.

As to D73Q, the abundance fitness was 0.004 ± 0.096.

Consider D73V, for which the abundance fitness was -0.949 ± 0.093.

For the variant D73N, the abundance fitness is -0.102 ± 0.22.

Take D73H: the abundance fitness was -0.135 ± 0.14.

On to D73C, for which the abundance fitness is -0.343 ± 0.15.

As for D73S, the abundance fitness was -0.012 ± 0.07.

D73R: the abundance fitness was -0.715 ± 0.084.

D73T: the abundance fitness was -0.252 ± 0.097.

For D73M, the abundance fitness was -0.391 ± 0.11.

With I77L, the abundance fitness was 0.013 ± 0.057.

Consider I77A, for which the abundance fitness was -0.309 ± 0.075.

On to I77C, for which the abundance fitness is -0.074 ± 0.2.

Take I77H: the abundance fitness is -0.842 ± 0.47.

As for I77K, the abundance fitness is -1.01 ± 0.38.

In the case of I77G, the abundance fitness is -0.817 ± 0.093.

Take I77F: the abundance fitness is -0.259 ± 0.11.

I77E: the abundance fitness was -0.85 ± 0.22.

As for V74L, the abundance fitness is -0.117 ± 0.064.

Take V74F: the abundance fitness was found to be 0.042 ± 0.078.

For the variant V74P, the abundance fitness is 0.009 ± 0.095.

As for V74G, the abundance fitness was -0.085 ± 0.052.

With V74C, the abundance fitness was -0.039 ± 0.08.

Consider V74W, for which the abundance fitness is -0.087 ± 0.091.

Take V74R: the abundance fitness was found to be 0.036 ± 0.062.

On to V74Q, for which the abundance fitness was found to be 0.037 ± 0.095.

Consider V74N, for which the abundance fitness came out at 0.034 ± 0.2.

In the case of V74D, the abundance fitness was -0.022 ± 0.091.

Turning to V74S, the abundance fitness is -0.048 ± 0.064.

For the variant V74Y, the abundance fitness was -0.052 ± 0.11.

Turning to V74I, the abundance fitness is -0.115 ± 0.091.

Turning to V74K, the abundance fitness was 0.008 ± 0.13.

For the variant V74M, the abundance fitness is -0.107 ± 0.093.

As for V74E, the abundance fitness amounted to 0.051 ± 0.11.

For the variant V74A, the abundance fitness is 0.031 ± 0.077.

As for S76I, the abundance fitness is -0.173 ± 0.13.

For S76V, the abundance fitness worked out at 0.023 ± 0.064.

As to S76R, the abundance fitness is -0.046 ± 0.044.

Take S76Y: the abundance fitness was -0.107 ± 0.12.

Consider S76P, for which the abundance fitness is -0.467 ± 0.16.

For S76A, the abundance fitness is -0.036 ± 0.073.

For the variant S76Q, the abundance fitness was determined as 0.057 ± 0.11.

In the case of S76H, the abundance fitness came out at 0 ± 0.17.

On to S76T, for which the abundance fitness was -0.146 ± 0.091.

Turning to S76W, the abundance fitness was -0.207 ± 0.082.

For S76L, the abundance fitness was -0.112 ± 0.06.

As for S76F, the abundance fitness is -0.043 ± 0.11.

With S76M, the abundance fitness was -0.012 ± 0.087.

Regarding S76G, the abundance fitness was -0.021 ± 0.043.

For S76C, the abundance fitness was -0.015 ± 0.096.

Take S76E: the abundance fitness is -0.096 ± 0.088.

Turning to V69P, the abundance fitness is -1.03 ± 0.3.

On to V69H, for which the abundance fitness was -1 ± 0.43.

In the case of V69W, the abundance fitness is -0.987 ± 0.24.

As for V69I, the abundance fitness is -0.022 ± 0.079.

V69G: the abundance fitness was -0.886 ± 0.097.

Regarding V69T, the abundance fitness is -0.12 ± 0.079.

With V69C, the abundance fitness came out at 0.067 ± 0.072.

On to V69R, for which the abundance fitness is -0.665 ± 0.079.

On to V69A, for which the abundance fitness is -0.045 ± 0.064.

For the variant V69S, the abundance fitness is -0.255 ± 0.072.

Take V69Y: the abundance fitness was -0.781 ± 0.35.

For the variant V69K, the abundance fitness was -0.514 ± 0.18.

Take V69Q: the abundance fitness is -0.689 ± 0.085.

Regarding V69F, the abundance fitness was -0.717 ± 0.15.

On to V69M, for which the abundance fitness was -0.032 ± 0.1.

As to L67W, the abundance fitness was -0.976 ± 0.17.

Consider L67M, for which the abundance fitness was -0.247 ± 0.073.

On to L67S, for which the abundance fitness is -0.893 ± 0.12.

Take L67E: the abundance fitness was -0.853 ± 0.15.

Consider L67F, for which the abundance fitness is -0.411 ± 0.14.

Consider L67I, for which the abundance fitness was -0.057 ± 0.083.

In the case of L67T, the abundance fitness is -0.693 ± 0.25.

As for L67R, the abundance fitness was -0.956 ± 0.12.

On to L67V, for which the abundance fitness is -0.35 ± 0.058.

L67G: the abundance fitness was -0.896 ± 0.1.

In the case of L67N, the abundance fitness is -0.757 ± 0.2.

Take L67P: the abundance fitness is -0.789 ± 0.14.

Take G72T: the abundance fitness was -0.037 ± 0.1.

Turning to G72N, the abundance fitness was -0.043 ± 0.28.

For G72Y, the abundance fitness was -0.256 ± 0.23.

As to G72M, the abundance fitness is -0.392 ± 0.12.

On to G72F, for which the abundance fitness is -0.336 ± 0.22.

Consider G72L, for which the abundance fitness is -0.42 ± 0.072.

Turning to G72H, the abundance fitness was -0.257 ± 0.16.

Regarding G72R, the abundance fitness was -0.177 ± 0.051.

Take G72E: the abundance fitness is -0.23 ± 0.088.

With G72K, the abundance fitness is -0.317 ± 0.097.

G72S: the abundance fitness was -0.278 ± 0.082.

As to G72D, the abundance fitness was -0.187 ± 0.15.

Regarding G72W, the abundance fitness is -0.363 ± 0.073.

With G72A, the abundance fitness is -0.271 ± 0.061.

For the variant G72P, the abundance fitness was -0.891 ± 0.21.

G72C: the abundance fitness was -0.453 ± 0.2.

As for G72Q, the abundance fitness is -0.424 ± 0.13.

In the case of L71Y, the abundance fitness is -0.391 ± 0.34.

On to L71N, for which the abundance fitness amounted to 0.103 ± 0.14.

For L71F, the abundance fitness was -0.184 ± 0.25.

Turning to L71V, the abundance fitness is -0.048 ± 0.058.

L71D: the abundance fitness is -0.086 ± 0.15.

L71I: the abundance fitness came to 0.045 ± 0.13.

In the case of L71Q, the abundance fitness is -0.028 ± 0.076.

As to L71K, the abundance fitness is -0.026 ± 0.091.

For the variant L71E, the abundance fitness turned out to be 0.07 ± 0.069.

Turning to L71R, the abundance fitness was -0.102 ± 0.055.

In the case of L71M, the abundance fitness is -0.002 ± 0.12.

For the variant L71A, the abundance fitness came to 0.114 ± 0.066.

As to L71P, the abundance fitness was -0.083 ± 0.061.

For L71T, the abundance fitness came to 0.083 ± 0.097.

Regarding L71C, the abundance fitness is -0.112 ± 0.11.

Take L71G: the abundance fitness amounted to 0.009 ± 0.053.

Regarding L71S, the abundance fitness is -0.004 ± 0.073.

Regarding R70Y, the abundance fitness is 0.005 ± 0.15.

Regarding R70Q, the abundance fitness was -0.157 ± 0.12.

On to R70I, for which the abundance fitness was -0.242 ± 0.19.

With R70D, the abundance fitness is -0.091 ± 0.13.

As to R70E, the abundance fitness is 0.106 ± 0.092.

On to R70S, for which the abundance fitness turned out to be 0.036 ± 0.062.

In the case of R70N, the abundance fitness was -0.101 ± 0.12.

As to R70F, the abundance fitness was -0.184 ± 0.1.

R70L: the abundance fitness is 0.037 ± 0.06.

In the case of R70V, the abundance fitness was -0.076 ± 0.064.

For the variant R70T, the abundance fitness worked out at 0.017 ± 0.085.

As for R70H, the abundance fitness is -0.152 ± 0.11.

Regarding R70P, the abundance fitness is -0.327 ± 0.094.

For the variant R70W, the abundance fitness was -0.127 ± 0.072.

Regarding R70M, the abundance fitness is -0.077 ± 0.092.

As for R70A, the abundance fitness was 0.043 ± 0.062.

On to R70G, for which the abundance fitness is 0.049 ± 0.056.

Regarding R68D, the abundance fitness was -0.064 ± 0.12.

With R68M, the abundance fitness was 0.01 ± 0.087.

Turning to R68N, the abundance fitness is -0.123 ± 0.14.

As to R68V, the abundance fitness was -0.124 ± 0.063.

For the variant R68C, the abundance fitness was -0.114 ± 0.14.

Consider R68F, for which the abundance fitness is -0.165 ± 0.14.

R68E: the abundance fitness worked out at 0.047 ± 0.084.

As for R68P, the abundance fitness was -0.891 ± 0.17.

With R68K, the abundance fitness amounted to 0.122 ± 0.12.

Consider R68H, for which the abundance fitness is -0.009 ± 0.13.

On to R68I, for which the abundance fitness was -0.588 ± 0.21.

For R68Q, the abundance fitness is -0.119 ± 0.1.

For R68S, the abundance fitness came out at 0.068 ± 0.073.

For R68L, the abundance fitness is -0.033 ± 0.057.

For R68W, the abundance fitness is -0.169 ± 0.097.

Consider R68Y, for which the abundance fitness is 0.274 ± 0.23.

As for R68T, the abundance fitness is -0.14 ± 0.09.

As for I75E, the abundance fitness was -0.633 ± 0.19.

With I75H, the abundance fitness was -0.695 ± 0.14.

Turning to I75G, the abundance fitness was -0.944 ± 0.19.

With I75K, the abundance fitness is -1.05 ± 0.3.

As for I75N, the abundance fitness was -0.842 ± 0.31.

I75T: the abundance fitness is -0.495 ± 0.14.

For the variant I75C, the abundance fitness was -0.265 ± 0.12.

I75Y: the abundance fitness is -0.916 ± 0.31.

For I75M, the abundance fitness is -0.2 ± 0.11.

Take I75A: the abundance fitness was -0.246 ± 0.088.

In the case of I75D, the abundance fitness is -0.863 ± 0.41.

Regarding I75V, the abundance fitness is -0.039 ± 0.069.

As to I75F, the abundance fitness was -0.859 ± 0.15.

As for I75Q, the abundance fitness was -1.11 ± 0.28.

For the variant I75L, the abundance fitness was -0.155 ± 0.054.

In the case of I75W, the abundance fitness is -1.04 ± 0.37.
